These results are taken from PMC6340141.

The assay has as its target T1, native KCC2 (neuron-specific K+-Cl- cotransporter) (mouse (endogenous in mouse brain)), Q91V14.
T1 chain: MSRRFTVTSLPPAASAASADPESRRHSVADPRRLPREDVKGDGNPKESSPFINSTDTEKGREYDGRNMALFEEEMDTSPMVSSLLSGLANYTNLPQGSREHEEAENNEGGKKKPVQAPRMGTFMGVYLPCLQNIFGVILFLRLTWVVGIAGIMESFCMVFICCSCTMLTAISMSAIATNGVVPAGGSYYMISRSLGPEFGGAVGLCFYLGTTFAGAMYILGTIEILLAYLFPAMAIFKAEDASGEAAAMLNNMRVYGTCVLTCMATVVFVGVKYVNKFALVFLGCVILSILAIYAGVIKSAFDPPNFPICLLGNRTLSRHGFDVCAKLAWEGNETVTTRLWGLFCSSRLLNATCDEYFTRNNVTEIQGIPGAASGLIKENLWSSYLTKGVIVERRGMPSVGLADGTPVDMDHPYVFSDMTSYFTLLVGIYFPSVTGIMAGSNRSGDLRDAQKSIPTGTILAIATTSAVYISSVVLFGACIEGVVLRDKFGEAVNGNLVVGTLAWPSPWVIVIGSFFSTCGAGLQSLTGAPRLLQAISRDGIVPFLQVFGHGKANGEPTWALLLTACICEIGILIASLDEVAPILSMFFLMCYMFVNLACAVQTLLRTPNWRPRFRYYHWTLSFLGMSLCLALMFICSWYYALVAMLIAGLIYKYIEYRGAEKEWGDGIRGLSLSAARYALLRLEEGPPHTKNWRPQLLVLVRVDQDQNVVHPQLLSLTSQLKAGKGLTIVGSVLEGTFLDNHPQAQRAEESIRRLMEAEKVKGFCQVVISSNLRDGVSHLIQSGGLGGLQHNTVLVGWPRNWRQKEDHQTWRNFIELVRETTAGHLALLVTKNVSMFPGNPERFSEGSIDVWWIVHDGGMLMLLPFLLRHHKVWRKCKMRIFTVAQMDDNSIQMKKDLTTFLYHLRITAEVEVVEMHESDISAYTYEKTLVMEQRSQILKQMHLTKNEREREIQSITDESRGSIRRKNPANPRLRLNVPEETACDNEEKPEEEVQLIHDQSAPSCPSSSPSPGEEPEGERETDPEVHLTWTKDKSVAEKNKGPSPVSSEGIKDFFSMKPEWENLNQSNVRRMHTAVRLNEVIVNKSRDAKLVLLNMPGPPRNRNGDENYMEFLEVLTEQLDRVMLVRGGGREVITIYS
Description: native gel or EMSA. As to conditions: remark: other sources report otherwise. In general terms: In EMSA bound probe runs differently from free probe, usually more slowly.

B1: native KCC2 (neuron-specific K+-Cl- cotransporter), Q91V14 1-1138 (natural protein)
chain: MSRRFTVTSLPPAASAASADPESRRHSVADPRRLPREDVKGDGNPKESSPFINSTDTEKGREYDGRNMALFEEEMDTSPMVSSLLSGLANYTNLPQGSREHEEAENNEGGKKKPVQAPRMGTFMGVYLPCLQNIFGVILFLRLTWVVGIAGIMESFCMVFICCSCTMLTAISMSAIATNGVVPAGGSYYMISRSLGPEFGGAVGLCFYLGTTFAGAMYILGTIEILLAYLFPAMAIFKAEDASGEAAAMLNNMRVYGTCVLTCMATVVFVGVKYVNKFALVFLGCVILSILAIYAGVIKSAFDPPNFPICLLGNRTLSRHGFDVCAKLAWEGNETVTTRLWGLFCSSRLLNATCDEYFTRNNVTEIQGIPGAASGLIKENLWSSYLTKGVIVERRGMPSVGLADGTPVDMDHPYVFSDMTSYFTLLVGIYFPSVTGIMAGSNRSGDLRDAQKSIPTGTILAIATTSAVYISSVVLFGACIEGVVLRDKFGEAVNGNLVVGTLAWPSPWVIVIGSFFSTCGAGLQSLTGAPRLLQAISRDGIVPFLQVFGHGKANGEPTWALLLTACICEIGILIASLDEVAPILSMFFLMCYMFVNLACAVQTLLRTPNWRPRFRYYHWTLSFLGMSLCLALMFICSWYYALVAMLIAGLIYKYIEYRGAEKEWGDGIRGLSLSAARYALLRLEEGPPHTKNWRPQLLVLVRVDQDQNVVHPQLLSLTSQLKAGKGLTIVGSVLEGTFLDNHPQAQRAEESIRRLMEAEKVKGFCQVVISSNLRDGVSHLIQSGGLGGLQHNTVLVGWPRNWRQKEDHQTWRNFIELVRETTAGHLALLVTKNVSMFPGNPERFSEGSIDVWWIVHDGGMLMLLPFLLRHHKVWRKCKMRIFTVAQMDDNSIQMKKDLTTFLYHLRITAEVEVVEMHESDISAYTYEKTLVMEQRSQILKQMHLTKNEREREIQSITDESRGSIRRKNPANPRLRLNVPEETACDNEEKPEEEVQLIHDQSAPSCPSSSPSPGEEPEGERETDPEVHLTWTKDKSVAEKNKGPSPVSSEGIKDFFSMKPEWENLNQSNVRRMHTAVRLNEVIVNKSRDAKLVLLNMPGPPRNRNGDENYMEFLEVLTEQLDRVMLVRGGGREVITIYS
For B1, the stoichiometry N – broadly, the number of molecules, sites or subunits per partner or assembly – is 4.
